# Target: human γδ TCR (Vγ9Vδ2) on human γδ T cells (human)
# Test: cell-based or functional assay
# human γδ TCR (Vγ9Vδ2) on human γδ T cells (human), sequence (main, as listed by the source): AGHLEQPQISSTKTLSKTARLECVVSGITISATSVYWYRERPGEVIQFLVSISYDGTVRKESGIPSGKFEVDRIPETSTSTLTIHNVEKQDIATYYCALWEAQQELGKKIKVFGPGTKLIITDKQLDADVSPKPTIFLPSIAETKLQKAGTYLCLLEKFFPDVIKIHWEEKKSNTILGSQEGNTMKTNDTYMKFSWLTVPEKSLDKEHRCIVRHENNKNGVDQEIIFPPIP
binder,measurement,value
"1D7v158×5T4 bispecific γδTCR×5T4 molecule (bispecific antibody, part only; not given: anti-5T4 VHH, Fc halves, not shown: a dimerising Fc or GST) chain, part: EVQLLESGGGEVQPGGSLRLSCVASRGKISQYRMGWYRQAPGKQRELVAHISNTGDAAEYVAPVKGRFTISRDNAKNALYLQMNSLRAEDTAVYKCNTVEDILAWGQGTLVTVEP","potency (EC50) of γδ T cell-mediated caspase-3/7 activation / cytotoxicity on A375 cells, against the molecule comprising 1D7v9",2 fold
